Experimental data: the supplement of paper PMC10567573
± gives the standard deviation.

Experiment: protein stability index of a GFP-peptide fusion (GPS, HEK-293T) (PSI 1-6); higher = more stable
[1] = treatment: DMSO, c terminus: a fixed tail appended
[2] = treatment: MLN4924 1 uM, 8 h, c terminus: a fixed tail appended
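Note: 24-mer peptide tiles fused after GFP, lentivirally expressed, FACS-sorted into six equal bins by GFP/DsRed ratio, decoded by Illumina sequencing, PSI is the read-weighted mean bin number.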

Sequence | protein stability index [1] | protein stability index [2] | protein stability index (treatment: DMSO, c terminus: native) | protein stability index (treatment: MLN4924 1 uM, 8 h, c terminus: native)
EIKSMKKRMSELCIDFNKNLNEDD | 4.64 ± 0.6 |  |  | 
EILGIEPDREKGFHLDVEDYLSGV [TSN] | 3.27 ± 0.22 | 3.45 ± 0.41 |  | 
EISALNGNRINVPMVRKRSVSNST [DLC1] | 3.5 ± 0.071 | 3.5 ± 0.32 |  | 
EKELISMECYDIYSKTWTKQPDLT [GAN] | 3.21 ± 0.25 | 3.28 ± 0.36 |  | 
EKHPKKPEPQQKAPLVPPPPPPPP [SRPK2] | 5.42 ± 0.22 | 5.47 ± 0.09 |  | 
EKPPRPEAKSAQPADGWKGERPRS [GCH1] | 5.2 ± 0.2 | 5.21 ± 0.11 |  | 
EKQSRCVNIEWHRFRFGQDQLLLA [WSB1] | 2.14 ± 0.24 | 2.6 ± 0.42 |  | 
ELERARELKEKEATLCLEFLLQND [ANKRD44] | 3.94 ± 0.2 | 4.13 ± 0.35 |  | 
ELFDKLSLRFNGRVLFIKDVIGDE [KCTD10] | 2.08 ± 0.22 | 2.82 ± 0.59 |  | 
ELFSYLRNRGRFSSTTGLFYSAEI [PRKX] | 2.36 ± 0.84 | 2.44 ± 1.3 |  | 
ELKPEDKDPRDPEESKEPKEEKQR [GNAS] | 5.22 ± 0.48 | 5.7 ± 0.3 |  | 
ELLDEKLLARGTMQPFNYVTLQCL [FEM1A] | 2.56 ± 0.41 | 2.44 ± 0.57 |  | 
ELQGLDYCKPTRLDLLLDMPPVSY [SPSB1] | 2.31 ± 0.14 | 2.38 ± 0.11 |  | 
ELVLRKDCPKIVEPHGKMFNEQTW [ZSCAN9] | 2.86 ± 0.38 | 2.78 ± 0.3 |  | 
EMERTQAQLRDAVQSLQLSPRTRG [RASAL3] | 4.96 ± 0.36 | 4.77 ± 0.49 |  | 
EMIITKAGRRMFPSYKVKVTGLNP [TBX5] | 2.12 ± 0.14 | 2.4 ± 0.32 |  | 
ENAQKKRFNQVLKNLLHAEFLRVQ [VPS39] | 2.73 ± 0.43 | 2.29 ± 0.39 |  | 
ENFEDVGHSTDAREMSKTFIIGEL [CYB5A] | 3.95 ± 0.4 | 3.89 ± 0.29 |  | 
ENLFTGEDLDELEEELNTLDLEE [ZC3H15] |  |  | 4.26 ± 0.32 | 4.65 ± 0.32
ENQSSQAELKEAVEEPSSKDVMEK [CHGA] | 5.6 ± 0.12 | 5.72 ± 0.19 |  | 
EPQGLGYWEAWRHHCQGKDLTEWV [SPACA3] | 3.85 ± 0.2 | 3.8 ± 0.45 |  | 
EPSRSASEADSEAGELRKPTQEEW [PPEF2] | 5.68 ± 0.33 | 5.81 ± 0.16 |  | 
EQEPELSFLKQKEQLEAEAQALRQ [PBXIP1] | 5.42 ± 0.19 | 5.29 ± 0.21 |  | 

Sequence | protein stability index [1] | protein stability index [2] | protein stability index (treatment: DMSO, c terminus: native) | protein stability index (treatment: MLN4924 1 uM, 8 h, c terminus: native)
EQMKVYKCEHCRVLFLDHVMYTIH [IKZF1] | 2.37 ± 0.34 | 2.23 ± 0.41 |  | 
EQVFLYENARSGAEAEPEDQDEGE [ZBED1] | 5.7 ± 0.25 | 5.52 ± 0.4 |  | 
ERCLLNNSLWKKNKTICKERLQIL [NLN] | 2.31 ± 0.26 | 2.7 ± 0.49 |  | 
ERKKVQIRSMDPSALASDRFNLIL [DCAF4] | 2.29 ± 0.16 | 2.5 ± 0.23 |  | 
ERLYVIGGNHFRGTSDYDDVLSCE [KLHL13] | 3.28 ± 0.19 | 3.35 ± 0.18 |  | 
ERVALANRKRECGNAHYQRADFVL [FKBP8] | 2.98 ± 0.27 | 2.75 ± 0.12 |  | 
ESHKAKNESWIKSHFSRLSEEKLA [C10orf62] | 3.81 ± 0.17 | 3.86 ± 0.35 |  | 
ESLDYDRCINDPYLEVLETMDNKK [CLCN6] | 5.21 ± 0.25 | 5.29 ± 0.37 |  | 
ESNVSMASLGEKRDHHSTHYRASE [CHGB] | 4.71 ± 0.27 | 4.79 ± 0.33 |  | 
ESTPVGTVVGLFNVRDRDSGRNGE [PCDHGC5] | 4.92 ± 0.33 | 4.89 ± 0.31 |  | 
ESVDEAGGSGPAGLRASTSDGILR [RHOBTB2] | 5.14 ± 0.21 | 5.16 ± 0.2 |  | 
ETALTLACCGGFLEVADFLIKAGA [ANKRD17] | 2.54 ± 0.9 | 2.65 ± 0.76 |  | 
ETFLSFLEYLYTDSCCPAGIFQAM [RHOBTB3] | 2.96 ± 0.48 | 2.56 ± 0.35 |  | 
ETRRLSIGLDNGTISEFILSEDYN [WDFY2] | 3.84 ± 0.34 | 4.03 ± 0.3 |  | 
ETVGGAILDQTTSEDAVGGATLGQ [HDAC6] | 5.29 ± 0.25 | 5.62 ± 0.25 |  | 
EVIVFGGCANNLLVHHRAAHSNEI [KLHDC2] | 2.13 ± 0.19 | 2.2 ± 0.26 |  | 
EVRLVQKKDTGHIYAMKILRKSDM [STK38L] | 2.65 ± 0.22 | 2.45 ± 0.29 |  | 
EVTLEANPTSAPGSRLAEFGAAGV [RSAD1] | 4.21 ± 0.13 | 4.25 ± 0.24 |  | 
EYAGSNTYEEAAAYIQCQFEDLNK [GNAI1] | 3.95 ± 0.37 | 4.12 ± 0.5 |  | 
EYEAGRAGPGGGAERRRAGRLLLT [ESRRA] | 4.23 ± 0.37 | 4.33 ± 0.18 |  | 
EYVHSKNLIYRDVKPENFLIGRPG [CSNK1G3] | 2.79 ± 0.32 | 2.78 ± 0.32 |  | 
FAKAKPEIPWTSLTRKGLVRVVFF [PHTF1] | 3.41 ± 0.51 | 3.29 ± 0.84 |  | 
FASGGFQVKLYDIEQQQIRNALEN [CRYL1] | 2.56 ± 0.28 | 2.95 ± 0.83 |  | 

Sequence | protein stability index [1] | protein stability index [2] | protein stability index (treatment: DMSO, c terminus: native) | protein stability index (treatment: MLN4924 1 uM, 8 h, c terminus: native)
FCADNPSELPPPMERTGGIGDSRP [DVL3] | 4.45 ± 0.32 | 4.62 ± 0.32 |  | 
FCDRCCSQKVPLRRMCFVDPVRQC [ZFYVE21] | 2.29 ± 0.14 | 2.04 ± 0.15 |  | 
FDIQQGFDNPQVRFFLGDLCSRQD [NSDHL] | 2.94 ± 0.24 | 2.86 ± 0.31 |  | 
FDSHRLPGDCFLLLVLLLYAPVGF [AUP1] | 3.02 ± 0.62 | 3.15 ± 0.17 |  | 
FEFDETSFWNSSHPRGWNDHVHIL [KLHDC2] | 2.37 ± 0.64 | 2.18 ± 0.28 |  | 
FETHESDINSVRYYPSGDAFASGS [GNB5] | 3.9 ± 0.25 | 3.94 ± 0.16 |  | 
FFWHLTLPERRGTCADRDNLTRRF [CASP6] | 2.61 ± 0.36 | 2.09 ± 0.18 |  | 
FGAWRCLLDATVAGGQTRLQASDR [FCHSD1] | 2.36 ± 0.27 | 2.48 ± 0.34 |  | 
FGVAGRSCQEVLRKGCLRFQLPER [DFFB] | 2.33 ± 0.24 | 2.25 ± 0.12 |  | 
FIGEESVAAGEKSILTDNPTWIID [IMPA1] | 2.82 ± 0.46 | 3.38 ± 0.28 |  | 
FKTGNSTATCTTNNNPNSCVNIKK [KCNA3] | 4.53 ± 0.15 | 4.58 ± 0.36 |  | 
FLEEDNYKNIKRPPGDIMFLLVQR [USP39] | 2.23 ± 0.37 | 2.11 ± 0.27 |  | 
FLGHHSFSVRPGTEATISIREDEV [SCNN1D] | 2.42 ± 0.64 | 3.12 ± 0.52 |  | 
FLNFNGMKLFLDCLKEFPEKQELH [ZER1] | 2.29 ± 0.18 | 2.42 ± 0.18 |  | 
FLPEKKDTGVFAVVNSHSLSLLGK [SLC22A15] | 2.57 ± 0.39 | 2.83 ± 0.52 |  | 
FLQRGADTNLGRLEDGQTPLHLSA [ASB7] | 3.61 ± 0.17 | 3.76 ± 0.26 |  | 
FMLGLGTLLPWNFFMTATQYFTNR [SLC29A1] | 2.87 ± 0.55 | 3.13 ± 0.26 |  | 
FNFKFNLTEDMYAQDSIELLTTSG [CNOT7] | 1.825 ± 0.003 |  |  | 
FPACRVSVTGLDPEARYLFLLDVI [TBX6] | 2.56 ± 0.53 | 2.09 ± 0.24 |  | 
FPSDHLGDLGDPFHLGLEDILMEE [TFE3] | 3.82 ± 0.19 | 4.04 ± 0.4 |  | 
FPSSGRFWKLYIEAEVTILFYFFL [CSTF3] | 2.87 ± 0.66 | 2.35 ± 0.9 |  | 
FRQMATALAHCHQHGLVLRDLKLC [TRIB3] | 2.21 ± 0.38 | 2.03 ± 0.3 |  | 
FSEIRETSAKVNWMPPPSRADSFK [TNXB] | 3.58 ± 0.31 | 3.88 ± 0.37 |  | 

Sequence | protein stability index [1] | protein stability index [2] | protein stability index (treatment: DMSO, c terminus: native) | protein stability index (treatment: MLN4924 1 uM, 8 h, c terminus: native)
FSFKVSRWMGLACFRSLAASSPSI [CCDC70] | 2.2 ± 0.34 | 2.63 ± 0.53 |  | 
FSIGLGPMPWLVLSEIFPGGIRGR [SLC2A12] | 2.29 ± 0.67 | 2.51 ± 0.5 |  | 
FSPSQFLNFWNKQDTLELESPSLT [MYBL2] | 2.47 ± 0.55 | 3.06 ± 0.39 |  | 
FTSSPSPFSSSSPENVEDSGLDSP [FCHO1] | 2.86 ± 0.94 | 3.81 ± 0.87 |  | 
FTYDPWIGKLLYLEDFFVMSDYRG [SAT1] | 2.88 ± 0.51 | 2.79 ± 0.76 |  | 
FVLSLVKKHYRLQFYMFGWTHVTL [CDS2] | 2.99 ± 0.57 | 2.99 ± 0.67 |  | 
FYLPREELWIYNMETGRWKKINTE [KLHDC2] | 2.63 ± 0.22 | 2.32 ± 0.49 |  | 
FYMEEGVPYCERDYEKMFGTKCHG [PDLIM7] | 2.78 ± 0.4 | 3.19 ± 0.31 |  | 
FYTLSPNSHFSLNVKTLKDGKPFP [PCDHGC5] | 2.6 ± 0.21 | 2.62 ± 0.24 |  | 
GAAEPITVKFANNPSQKTGQALLT [ELAVL3] | 4.1 ± 0.3 | 4.39 ± 0.055 |  | 
GAAESPYAYSNGIDYKTTTILLDG [RAB40C] | 3.7 ± 0.39 | 3.67 ± 0.39 |  | 
GAHTLVNHGYAEPAAGRELPPDMT [KCNA3] | 4.87 ± 0.13 | 4.73 ± 0.17 |  | 
GAILTTMLATRNFSGGKSGGNKKS [CAMK2A] | 3.67 ± 0.24 | 3.63 ± 0.41 |  | 
GATWRTSGLLEELNAEAGHLDPGF [C18orf25] | 3.98 ± 0.43 | 3.75 ± 0.52 |  | 
GAVVLGAESHASKDVAIDMMDSRT [STX5] | 4.67 ± 0.2 | 4.64 ± 0.44 |  | 
GCDRIIGSKKKFDKCMVCGGDGSG [ADAMTS4] | 3.21 ± 0.34 | 4.053 ± 0.022 |  | 
GCYAYRQNPEAIAAAAMYTFLPDN [MYORG] | 2.61 ± 0.34 | 2.46 ± 0.29 |  | 
GDRPRWQRLLGEDKFQWLAGLAPP [ANKRD9] | 2.85 ± 0.35 | 2.7 ± 0.3 |  | 
GEAAAGGAAEEARRLEQRWGFGLE [ACBD3] | 4.49 ± 0.38 | 4.43 ± 0.38 |  | 
GEGVERELFVREPTGRLPALVRWW [MYORG] | 2.91 ± 0.075 | 2.77 ± 0.34 |  | 
